This passage reports Ki and Km results from patent US5494912A, “9-purinyl phosphonic acid derivitives for treating gout” (Merrell Pharmaceuticals Inc., priority 1995, dated 1996).

The target in data set [1] is T1, purine nucleoside phosphorylase (PNP) (Bos taurus, UniProt P55859).
T1 construct: Spleen; from tissue; host or cells: spleen
T1 sequence (P55859 1-289): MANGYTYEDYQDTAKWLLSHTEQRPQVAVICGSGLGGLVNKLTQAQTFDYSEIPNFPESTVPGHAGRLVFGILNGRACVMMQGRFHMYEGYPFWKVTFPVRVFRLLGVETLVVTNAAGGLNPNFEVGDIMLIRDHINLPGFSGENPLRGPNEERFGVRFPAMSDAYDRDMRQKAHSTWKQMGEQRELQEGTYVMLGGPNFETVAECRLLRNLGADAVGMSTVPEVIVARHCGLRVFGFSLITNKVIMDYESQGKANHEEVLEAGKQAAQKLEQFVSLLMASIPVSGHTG
The data set can be described thus: PNP inhibition, coupled xanthine oxidase method of Kalckar, bovine spleen PNP. Type of data set: biochemical.

The target in data set [2] is T2, purine nucleoside phosphorylase (PNP) (Homo sapiens, UniProt P00491).
T2 construct: Erythrocytes; from tissue; host or cells: erythrocytes
T2 sequence (P00491 1-289): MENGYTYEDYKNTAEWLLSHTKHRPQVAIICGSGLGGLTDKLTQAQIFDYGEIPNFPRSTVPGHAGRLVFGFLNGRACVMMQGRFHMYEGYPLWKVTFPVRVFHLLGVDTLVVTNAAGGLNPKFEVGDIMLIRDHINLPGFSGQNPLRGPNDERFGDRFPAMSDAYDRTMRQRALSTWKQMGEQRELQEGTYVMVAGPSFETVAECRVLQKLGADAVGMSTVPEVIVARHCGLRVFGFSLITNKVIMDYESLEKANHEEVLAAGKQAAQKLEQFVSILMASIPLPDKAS
The data set can be described thus: PNP inhibition, coupled xanthine oxidase method of Kalckar, human erythrocyte PNP. Type of data set: biochemical. The conditions noted are these: 1 mM inorganic phosphate, 0.1M HEPES pH 7.4, inosine 0.05-0.15 mM as substrate; read-out: Ki (apparent dissociation constant), Human Erythrocytes PNP.

Substrate in data set [3]: OC[C@H]1O[C@@H](n2cnc3c(O)ncnc32)[C@H](O)[C@@H]1O
The data set is described as above. Type of data set: biochemical. The conditions noted are these: other: substrate KM for comparison with Ki; pH 7.4.

Substrate in data set [4]: OC[C@H]1O[C@@H](n2cnc3c(O)ncnc32)[C@H](O)[C@@H]1O
The data set can be described thus: PNP inhibition, coupled xanthine oxidase method of Kalckar, bovine spleen PNP. The following applies: other: substrate KM for comparison with Ki; pH 7.4. Type of data set: biochemical.

Substrate in data set [5]: OC[C@H]1O[C@@H](n2cnc3c(O)ncnc32)[C@H](O)[C@@H]1O
The data set can be described thus: purified protein. The conditions noted are these: other: substrate KM for comparison with Ki; pH 7.4.

Substrate in data set [6]: OC[C@H]1O[C@@H](n2cnc3c(O)ncnc32)[C@H](O)[C@@H]1O
The data set can be described thus: PNP inhibition, coupled xanthine oxidase method of Kalckar, E. coli PNP. Type of data set: biochemical. The conditions noted are these: other: substrate KM for comparison with Ki; pH 7.4.

In data set [1], `Nc1nc2c(ncn2Cc2ccccc2OCCC(F)(F)P(=O)(O)O)c(=O)[nH]1` had a Ki of 250 nM. As for `Nc1nc2c(ncn2Cc2ccccc2C(F)C(F)(F)P(=O)(O)O)c(=O)[nH]1` (stereo not shown) [[2-[2-[(2-amino-1,6-dihydro-6-oxo-9H-purin-9-yl)methyl]phenyl]-1,1,2-trifluoroethyl]phosphonic acid], the Ki in data set [2] was found to be 1.3 nM.

In turn, `Nc1nc2c(ncn2Cc2ccccc2OCP(=O)(O)O)c(=O)[nH]1` [[2-[(2-amino-1,6,dihydro-6-oxo-9H-purin-9yl)methyl]phenoxy]methylphosphonic acid] registered a Ki in data set [1] of 7.5 nM.

B1: purine nucleoside phosphorylase (PNP) (Homo sapiens) (protein)
chain: MENGYTYEDYKNTAEWLLSHTKHRPQVAIICGSGLGGLTDKLTQAQIFDYGEIPNFPRSTVPGHAGRLVFGFLNGRACVMMQGRFHMYEGYPLWKVTFPVRVFHLLGVDTLVVTNAAGGLNPKFEVGDIMLIRDHINLPGFSGQNPLRGPNDERFGDRFPAMSDAYDRTMRQRALSTWKQMGEQRELQEGTYVMVAGPSFETVAECRVLQKLGADAVGMSTVPEVIVARHCGLRVFGFSLITNKVIMDYESLEKANHEEVLAAGKQAAQKLEQFVSILMASIPLPDKAS
notes: Erythrocytes; from tissue; host or cells: erythrocytes
Take B1: the Km in data set [3] was determined as 150 µM.

B2: purine nucleoside phosphorylase (PNP) (Bos taurus) (protein)
chain: MANGYTYEDYQDTAKWLLSHTEQRPQVAVICGSGLGGLVNKLTQAQTFDYSEIPNFPESTVPGHAGRLVFGILNGRACVMMQGRFHMYEGYPFWKVTFPVRVFRLLGVETLVVTNAAGGLNPNFEVGDIMLIRDHINLPGFSGENPLRGPNEERFGVRFPAMSDAYDRDMRQKAHSTWKQMGEQRELQEGTYVMLGGPNFETVAECRLLRNLGADAVGMSTVPEVIVARHCGLRVFGFSLITNKVIMDYESQGKANHEEVLEAGKQAAQKLEQFVSLLMASIPVSGHTG
notes: Spleen; from tissue; host or cells: spleen
Take B2: the Km in data set [4] turned out to be 30 µM.

B3: purine nucleoside phosphorylase (PNP) (Rattus norvegicus) (protein)
chain: MENEFTYEDYQRTAEWLRSHTKHRPQVAVICGSGLGGLTAKLTQPQAFDYNEIPNFPQSTVQGHAGRLVFGFLNGRSCVMMQGRFHMYEGYSLSKVTFPVRVFHLLGVDTLVVTNAAGGLNPKFEVGDIMLIRDHINLPGFCGQNPLRGPNDERFGVRFPAMSDAYDRDMRQKAFNAWKQMGEQRELQEGTYIMSAGPTFETVAESCLLRMLGADAVGMSTVPEVIVARHCGLRVFGFSLITNKVVMDYNNLEKASHQEVLEAGKAAAQKLEQFVSILMESIPPRERAN
As to B3, the Km in data set [5] turned out to be 150 µM.

B4: purine nucleoside phosphorylase (PNP) (Escherichia coli K-12) (protein)
chain: ATPHINAEMGDFADVVLMPGDPLRAKYIAETFLEDAREVNNVRGMLGFTGTYKGRKISVMGHGMGIPSCSIYTKELITDFGVKKIIRVGSCGAVLPHVKLRDVVIGMGACTDSKVNRIRFKDHDFAAIADFDMVRNAVDAAKALGIDARVGNLFSADLFYSPDGEMFDVMEKYGILGVEMEAAGIYGVAAEFGAKALTICTVSDHIRTHEQTTAAERQTTFNDMIKIALESVLLGDKE
On to B4, for which the Km in data set [6] is 80 µM.

Broadly, the Km is the substrate concentration at which the rate is half of its maximum.
